Experimental data from publication PMC8257674, “Structural basis of inhibition of a transporter from Staphylococcus aureus, NorC, through a single-domain camelid antibody” (Communications Biology, 2021).

Legend:
Details in all cases: both partners purified
NorC WT [1] = target: T1, NorC WT (Staphylococcus aureus subsp. aureus COL …); assay: ITC; ICab (200 uM, syringe) titrated into NorC WT (20 uM, cell) with 1 mM TPP in both cell and syringe; 25 °C; 20 mM HEPES pH 7.0, 200 mM NaCl, 4 mM n-decyl-beta-D-maltopyranoside; 16 injections of 2.5 ul; one set of sites model
T1 construct: also called NorC wild-type; source: E. coli C41(DE3), extracted from membranes in DDM, purified (Ni-NTA, SEC in DM)
T1 chain: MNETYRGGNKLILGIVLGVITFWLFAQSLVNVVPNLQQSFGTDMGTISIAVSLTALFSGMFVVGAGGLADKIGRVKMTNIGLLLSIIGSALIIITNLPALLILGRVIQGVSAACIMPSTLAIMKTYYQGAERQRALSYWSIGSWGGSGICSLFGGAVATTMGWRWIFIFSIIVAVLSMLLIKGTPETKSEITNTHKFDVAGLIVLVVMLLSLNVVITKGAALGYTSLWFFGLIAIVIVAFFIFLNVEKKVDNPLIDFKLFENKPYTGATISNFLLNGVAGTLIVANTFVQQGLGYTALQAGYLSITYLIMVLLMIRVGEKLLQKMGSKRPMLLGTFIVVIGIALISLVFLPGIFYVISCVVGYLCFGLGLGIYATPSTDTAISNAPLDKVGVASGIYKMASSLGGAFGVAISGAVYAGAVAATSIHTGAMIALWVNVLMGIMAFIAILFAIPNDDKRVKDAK

NorC WT [2] = target: T1, NorC WT; assay: ITC; ICab (200 uM, syringe) titrated into NorC WT (20 uM, cell); 25 °C; 20 mM HEPES pH 7.0, 200 mM NaCl, 4 mM n-decyl-beta-D-maltopyranoside; one set of sites model
NorC WT (wild-type) [3] = target: T2, NorC WT (wild-type) (Staphylococcus aureus subsp. aureus COL …); assay: MST; 10 nM transporter labelled with red Tris-NTA dye, ICab titrated from 5 uM in twofold dilutions; Monolith NT.115 premium-coated capillaries; single-site binding model
T2 construct: not shown: His8, C-terminal, kept
T2 chain: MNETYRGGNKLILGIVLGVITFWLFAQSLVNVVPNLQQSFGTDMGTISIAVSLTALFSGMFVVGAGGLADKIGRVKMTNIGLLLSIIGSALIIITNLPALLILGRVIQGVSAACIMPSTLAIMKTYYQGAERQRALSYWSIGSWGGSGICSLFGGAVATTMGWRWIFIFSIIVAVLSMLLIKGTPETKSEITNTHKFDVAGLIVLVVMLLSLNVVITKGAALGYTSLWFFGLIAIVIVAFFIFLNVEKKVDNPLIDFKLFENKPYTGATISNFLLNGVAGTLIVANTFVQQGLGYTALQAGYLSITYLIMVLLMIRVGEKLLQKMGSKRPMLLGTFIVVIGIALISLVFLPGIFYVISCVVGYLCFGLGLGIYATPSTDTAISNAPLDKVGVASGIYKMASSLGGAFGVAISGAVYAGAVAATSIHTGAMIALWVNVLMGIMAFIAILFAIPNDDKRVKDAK

NorC WT (wild-type) [4] = target: T2, NorC WT (wild-type); assay: ITC; as without TPP+, but in the presence of 1 mM TPP+; 16 injections of 2.5 ul; 25 °C; 20 mM HEPES pH 7.0, 200 mM NaCl, 4 mM DM
NorC WT (wild-type) [5] = target: T3, NorC WT (wild-type) (Staphylococcus aureus subsp. aureus COL …); assay: ITC; ICab (200 uM) in the syringe titrated into NorC WT (20 uM) in the cell; 25 °C; 20 mM HEPES pH 7.0, 200 mM NaCl, 4 mM n-decyl-beta-D-maltopyranoside; one set of sites model
T3 chain: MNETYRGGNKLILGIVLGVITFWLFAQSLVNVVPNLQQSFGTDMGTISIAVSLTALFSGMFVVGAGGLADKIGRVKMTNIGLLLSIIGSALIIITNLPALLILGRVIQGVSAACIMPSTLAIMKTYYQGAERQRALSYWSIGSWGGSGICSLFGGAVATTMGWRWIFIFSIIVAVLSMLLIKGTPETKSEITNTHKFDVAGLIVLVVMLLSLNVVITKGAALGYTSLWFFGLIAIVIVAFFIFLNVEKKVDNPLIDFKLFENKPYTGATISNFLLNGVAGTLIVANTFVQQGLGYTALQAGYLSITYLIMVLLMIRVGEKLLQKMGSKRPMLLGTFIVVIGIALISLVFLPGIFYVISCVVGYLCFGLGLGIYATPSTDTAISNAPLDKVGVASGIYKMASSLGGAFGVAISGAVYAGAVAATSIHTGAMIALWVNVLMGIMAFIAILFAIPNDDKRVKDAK

NorC WT (wild-type) [6] = target: T3, NorC WT (wild-type); assay: ITC; ICab (200 uM) in the syringe titrated into NorC WT (20 uM) in the cell, with 1 mM TPP in both cell and syringe; 25 °C; 20 mM HEPES pH 7.0, 200 mM NaCl, 4 mM n-decyl-beta-D-maltopyranoside; 16 injections of 2.5 ul; one set of sites model

B1: single-domain Indian camelid antibody (ICab) (VHH)
VHH: QVQLEESGGGSVQAGGSLRLSCAASGYMYSTYSTYCMGWFRQAPGKEREGVAFIKRGDHSTYYTDSVKGRFTISQDSAKNTVSLQMNNLKPEDTAIYYCAADFAHSFLLSVHSGAGQYSYWGQGTQVTVSS
For B1, the “stoichiometry N” value (NorC WT [1]) was 1.14 ± 0.012, the Kd (NorC WT [2]) was 46.6 ± 8.9 nM and the “stoichiometry N” value (NorC WT [2]) was 1.04 ± 0.005.

B2: Zn2+-bound single-domain Indian camelid antibody (ICab) (VHH)
VHH: QVQLEESGGGSVQAGGSLRLSCAASGYMYSTYSTYCMGWFRQAPGKEREGVAFIKRGDHSTYYTDSVKGRFTISQDSAKNTVSLQMNNLKPEDTAIYYCAADFAHSFLLSVHSGAGQYSYWGQGTQVTVSS
notes: also called single-domain camelid antibody; vhh
B2 showed a Kd (NorC WT (wild-type) [3]) of 37.5 ± 16 nM and a Kd (NorC WT (wild-type) [4]) of 35.6 ± 16 nM.

B3: single-domain Indian camelid antibody (ICab) (VHH)
VHH: QVQLEESGGGSVQAGGSLRLSCAASGYMYSTYSTYCMGWFRQAPGKEREGVAFIKRGDHSTYYTDSVKGRFTISQDSAKNTVSLQMNNLKPEDTAIYYCAADFAHSFLLSVHSGAGQYSYWGQGTQVTVSS
notes: also called single-domain camelid antibody
B3 was tested, and the Kd (NorC WT (wild-type) [5]) was 46.6 nM, the “stoichiometry N” value (NorC WT (wild-type) [5]) was 1.04 and the “stoichiometry N” value (NorC WT (wild-type) [6]) was 1.14.
